Measured values as given in US20030113725A1.

B1: polymorphic Lys251 alpha-2A adrenergic receptor, P08913 16-465 (receptor)
chain: MGSLQPDAGNASWNGTEAPGGGARATPYSLQVTLTLVCLAGLLMLLTVFGNVLVIIAVFTSRALKAPQNLFLVSLASADILVATLVIPFSLANEVMGYWYFGKAWCEIYLALDVLFCTSSIVHLCAISLDRYWSITQAIEYNLKRTPRRIKAIIITVWVISAVISFPPLISIEKKGGGGGPQPAEPRCEINDQKWYVISSCIGSFFAPCLIMILVYVRIYQIAKRRTRVPPSRRGPDAVAAPPGGTERRPKGLGPERSAGPGGAEAEPLPTQLNGAPGEPAPAGPRDTDALDLEESSSSDHAERPPGPRRPERGPRGKGKARASQVKPGDSLPRRGPGATGIGTPAAGPGEERVGAAKASRWRGRQNREKRFTFVLAVVIGVFVVCWFPFFFTYTLTAVGCSVPRTLFKFFFWFGYCNSSLNPVIYTIFNHDFRRAFKKILCRGDRKRIV
B2: wild-type Asn251 alpha-2A adrenergic receptor, P08913 16-465 (receptor)
chain: MGSLQPDAGNASWNGTEAPGGGARATPYSLQVTLTLVCLAGLLMLLTVFGNVLVIIAVFTSRALKAPQNLFLVSLASADILVATLVIPFSLANEVMGYWYFGKAWCEIYLALDVLFCTSSIVHLCAISLDRYWSITQAIEYNLKRTPRRIKAIIITVWVISAVISFPPLISIEKKGGGGGPQPAEPRCEINDQKWYVISSCIGSFFAPCLIMILVYVRIYQIAKRRTRVPPSRRGPDAVAAPPGGTERRPNGLGPERSAGPGGAEAEPLPTQLNGAPGEPAPAGPRDTDALDLEESSSSDHAERPPGPRRPERGPRGKGKARASQVKPGDSLPRRGPGATGIGTPAAGPGEERVGAAKASRWRGRQNREKRFTFVLAVVIGVFVVCWFPFFFTYTLTAVGCSVPRTLFKFFFWFGYCNSSLNPVIYTIFNHDFRRAFKKILCRGDRKRIV
B3: Del322-325 alpha-2C adrenergic receptor, P18825 1-462 (receptor)
chain: MASPALAAALAVAAAAGPNASGAGERGSGGVANASGASWGPPRGQYSAGAVAGLAAVVGFLIVFTVVGNVLVVIAVLTSRALRAPQNLFLVSLASADILVATLVMPFSLANELMAYWYFGQVWCGVYLALDVLFCTSSIVHLCAISLDRYWSVTQAVEYNLKRTPRRVKATIVAVWLISAVISFPPLVSLYRQPDGAAYPQCGLNDETWYILSSCIGSFFAPCLIMGLVYARIYRVAKRRTRTLSEKRAPVGPDGASPTTENGLGAAAGAGENGHCAPPPADVEPDESSAAAERRRRRGALRRGGRRRAGAEGGAGGADGQGAAESGALTASRSPGPGGRLSRASSRSVEFFLSRRRRARSSVCRRKVAQAREKRFTFVLAVVMGVFVLCWFPFFFIYSLYGICREACQVPGPLFKFFFWIGYCNSSLNPVIYTVFNQDFRPSFKHILFRRRRRGFRQ
B4: wild-type alpha-2C adrenergic receptor, P18825 1-462 (receptor)
chain: MASPALAAALAVAAAAGPNASGAGERGSGGVANASGASWGPPRGQYSAGAVAGLAAVVGFLIVFTVVGNVLVVIAVLTSRALRAPQNLFLVSLASADILVATLVMPFSLANELMAYWYFGQVWCGVYLALDVLFCTSSIVHLCAISLDRYWSVTQAVEYNLKRTPRRVKATIVAVWLISAVISFPPLVSLYRQPDGAAYPQCGLNDETWYILSSCIGSFFAPCLIMGLVYARIYRVAKRRTRTLSEKRAPVGPDGASPTTENGLGAAAGAGENGHCAPPPADVEPDESSAAAERRRRRGALRRGGRRRAGAEGGAGGADGQGAGPGAAESGALTASRSPGPGGRLSRASSRSVEFFLSRRRRARSSVCRRKVAQAREKRFTFVLAVVMGVFVLCWFPFFFIYSLYGICREACQVPGPLFKFFFWIGYCNSSLNPVIYTVFNQDFRPSFKHILFRRRRRGFRQ

Experiments:
[1] = molecular target: HA epitope tagged wild-type alpha-2B adrenergic receptor (human) (UniProt P18089); assay: cell-based or functional assay
[2] = molecular target: HA epitope tagged Del301-303 alpha-2B adrenergic receptor (human) (UniProt P18089); assay: cell-based or functional assay
[3] = tested on: HA epitope tagged Del301-303 alpha-2B adrenergic receptor
Gi = assay: cell-based or functional assay
Gi/Go = assay: cell-based or functional assay

Row | Molecule | inhibition of adenylyl cyclase (epinephrine, CHO membranes) (Gi) [% inhibition] | maximal inhibition of adenylyl cyclase (partial agonist oxymetazoline, CHO membranes) (Gi) [% inhibition] | stimulation of MAP kinase (10 µM epinephrine, CHO cells) (fold increase over basal) (Gi) | epinephrine-stimulated accumulation of inositol phosphates (10 µM, intact CHO cells) (Gi/Go) [% over basal] | high affinity dissociation constant KH of the agonist epinephrine (competition with [3H]yohimbine without GTP) (Gi/Go) [nM] | percentage of receptors in the high-affinity state (% RH), epinephrine competition without GTP (Gi/Go) [%] | Max Inhibition (%) of adenylyl cyclase, BHT-933 (Gi) [%] | Max Inhibition (%) of adenylyl cyclase, UK 14304 (Gi) [%] | Max Inhibition (%) of adenylyl cyclase, clonidine (Gi) [%] | Max Inhibition (%) of adenylyl cyclase, guanabenz (Gi) [%] | Max Inhibition (%) of adenylyl cyclase, norepinephrine (Gi) [%] | Max Inhibition (%) of adenylyl cyclase, oxymetazoline (Gi) [%] | inhibition of adenylyl cyclase (epinephrine, lower expressing CHO lines) (Gi) [% inhibition] | maximal inhibition of adenylyl cyclase (epinephrine, higher expressing CHO lines) (Gi) [% inhibition] | further results
1 | GRK2 (βARK1) (enzyme) |  |  |  |  |  |  |  |  |  |  |  |  |  |  | agonist-promoted whole cell receptor phosphorylation (norepinephrine, COS-7 cells coexpressing GRK2) (fold increase) [1]: 5.84; agonist-promoted whole cell receptor phosphorylation (norepinephrine, COS-7 cells coexpressing GRK2) (fold increase) [2]: 3.28
2 | GRK2 (βARK1) |  |  |  |  |  |  |  |  |  |  |  |  |  |  | agonist-promoted phosphorylation as percent of wild-type [3]: the Del301-303 receptor displayed -56% of wild-type phosphorylation; basal phosphorylation, compared with the wild-type receptor [3]: Basal phosphorylation was equivalent between the two receptors
3 | B1 | 60 | 50 | 57 |  |  |  |  |  |  |  |  |  |  |  | 
4 | B2 | 46 | 35 | 15 |  |  |  |  |  |  |  |  |  |  |  | 
5 | B3 |  |  |  | 11 | 7.3 | 31 | 26.7 | 30.8 | 20.9 | 30 | 34.9 | 12.8 | 10 | 31 | impairment of inositol phosphate accumulation against wild-type (Gi/Go): 60 % impairment; impairment of maximal adenylyl cyclase inhibition against wild-type (higher expressing CHO lines) (Gi): 50 % impairment
6 | B4 |  |  |  | 30 | 3.7 | 49 | 56.8 | 67.6 | 38.5 | 53.8 | 76.6 | 27 | 73 | 60 | 
